Reference: patent publication US20220025069A1 (Hoffmann-La Roche, published 2022)
Read-outs that look alike come from different tables or passages of the source.

B1: FAP (4B9) huIgG1 PG LALA antibody (antibody, V domains shown)
VH: EVQLLESGGGLVQPGGSLRLSCAASGFTFSSYAMSWVRQAPGKGLEWVSAIIGSGASTYYADSVKGRFTISRDNSKNTLYLQMNSLRAEDTAVYYCAKGWFGGFNYWGQGTLVTVSS
VL: EIVLTQSPGTLSLSPGERATLSCRASQSVTSSYLAWYQQKPGQAPRLLINVGSRRATGIPDRFSGSGSGTDFTLTISRLEPEDFAVYYCQQGIMLPPTFGQGTKVEIK
notes: the control is a human IgG1 with P329G, L234A, L235A (PG LALA)
B2: bispecific, monovalent 1+2 anti-FAP, anti-4-1BB lipocalin huIgG1 PGLALA antigen binding molecule (bispecific antibody)
heavy 1: DKTHTCPPCPAPEAAGGPSVFLFPPKPKDTLMISRTPEVTCVVVDVSHEDPEVKFNWYVDGVEVHNAKTKPREEQYNSTYRVVSVLTVLHQDWLNGKEYKCKVSNKALGAPIEKTISKAKGQPREPQVCTLPPSRDELTKNQVSLSCAVKGFYPSDIAVEWESNGQPENNYKTTPPVLDSDGSFFLVSKLTVDKSRWQQGNVFSCSVMHEALHNHYTQKSLSLSPGGGGGSGGGGSGGGGSQDSTSDLIPAPPLSKVPLQQNFQDNQFHGKWYVVGQAGNIRLREDKDPIKMMATIYELKEDKSYDVTMVKFDDKKCMYDIWTFVPGSQPGEFTLGKIKSFPGHTSSLVRVVSTNYNQHAMVFFKFVFQNREEFYITLYGRTKELTSELKENFIRFSKSLGLPENHIVFPVPIDQCIDG
heavy 2: not shown
light: EIVLTQSPGTLSLSPGERATLSCRASQSVTSSYLAWYQQKPGQAPRLLINVGSRRATGIPDRFSGSGSGTDFTLTISRLEPEDFAVYYCQQGIMLPPTFGQGTKVEIKRTVAAPSVFIFPPSDEQLKSGTASVVCLLNNFYPREAKVQWKVDNALQSGNSQESVTEQDSKDSTYSLSSTLTLSKADYEKHKVYACEVTHQGLSSPVTKSFNRGEC
notes: also called FAP (4B9) x 4-1BB lipocalin huIgG1 PG LALA 1+2; 1+2 FAP(4B9) x 4-1BB lipocalin huIgG1 PGLALA
B3: bispecific, bivalent 2+2 anti-FAP, anti-4-1BB lipocalin huIgG1 PGLALA antigen binding molecule (bispecific antibody)
heavy: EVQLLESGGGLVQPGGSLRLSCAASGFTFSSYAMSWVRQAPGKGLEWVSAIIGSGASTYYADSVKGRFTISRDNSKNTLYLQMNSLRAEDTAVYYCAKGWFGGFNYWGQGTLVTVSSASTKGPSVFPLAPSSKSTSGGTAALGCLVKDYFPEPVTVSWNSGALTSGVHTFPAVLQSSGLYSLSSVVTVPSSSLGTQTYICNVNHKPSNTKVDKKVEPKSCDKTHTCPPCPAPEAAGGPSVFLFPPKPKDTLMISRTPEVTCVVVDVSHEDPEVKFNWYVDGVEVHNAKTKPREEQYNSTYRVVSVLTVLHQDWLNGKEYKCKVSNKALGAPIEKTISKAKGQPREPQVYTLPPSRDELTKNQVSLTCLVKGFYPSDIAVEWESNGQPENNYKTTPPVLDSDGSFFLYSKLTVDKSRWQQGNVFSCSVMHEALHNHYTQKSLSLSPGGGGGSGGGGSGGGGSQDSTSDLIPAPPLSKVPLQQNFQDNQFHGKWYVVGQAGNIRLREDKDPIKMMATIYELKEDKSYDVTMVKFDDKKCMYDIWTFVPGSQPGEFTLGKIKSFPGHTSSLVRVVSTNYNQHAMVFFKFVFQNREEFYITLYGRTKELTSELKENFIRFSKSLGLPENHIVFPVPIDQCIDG
light: B2 light
notes: also called FAP (4B9) x 4-1BB lipocalin huIgG1 PG LALA 2+2; 2+2 FAP(4B9) x 4-1BB lipocalin huIgG1 PGLALA
B4: bispecific, monovalent 1+2 anti-HER2, anti-4-1BB lipocalin huIgG1 PGLALA antigen binding molecule (bispecific antibody)
heavy 1: B2 heavy 1
heavy 2: not shown
light: not shown
notes: also called HER2 (TRAS) x 4-1BB lipocalin huIgG1 PG LALA 1+2; 1+2 HER2 x 4-1BB lipocalin huIgG1 PGLALA
B5: 2+2 FAP(4B9) x 4-1BB lipocalin huIgG4 SP molecule (bispecific antibody)
heavy: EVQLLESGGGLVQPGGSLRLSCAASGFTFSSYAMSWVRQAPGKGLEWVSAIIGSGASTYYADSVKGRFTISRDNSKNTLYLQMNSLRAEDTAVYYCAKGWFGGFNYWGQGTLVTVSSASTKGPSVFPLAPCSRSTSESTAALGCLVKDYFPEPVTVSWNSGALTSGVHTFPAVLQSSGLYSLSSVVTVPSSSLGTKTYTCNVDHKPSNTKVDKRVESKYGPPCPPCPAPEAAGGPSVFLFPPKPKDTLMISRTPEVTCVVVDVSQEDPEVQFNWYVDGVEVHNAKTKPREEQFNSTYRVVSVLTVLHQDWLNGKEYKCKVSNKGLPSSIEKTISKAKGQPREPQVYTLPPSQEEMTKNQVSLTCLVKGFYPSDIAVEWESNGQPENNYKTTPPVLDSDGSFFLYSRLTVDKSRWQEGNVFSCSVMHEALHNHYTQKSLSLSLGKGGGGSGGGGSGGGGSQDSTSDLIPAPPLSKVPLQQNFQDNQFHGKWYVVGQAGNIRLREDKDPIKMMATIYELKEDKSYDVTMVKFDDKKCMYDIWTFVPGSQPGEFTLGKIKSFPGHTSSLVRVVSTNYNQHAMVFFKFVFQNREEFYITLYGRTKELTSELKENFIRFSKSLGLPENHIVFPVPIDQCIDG
light: B2 light
notes: Comparison molecule; also called FAP (4B9) x 4-1BB lipocalin huIgG4 SP 2+2; FAP (4B9) anti-4-1BB lipocalin huIgG4 SP 2+2

Columns and labels:
[1] = target: T1, human 4-1BB (CD137), cell-surface-expressed on Jurkat-hu4-1BB-NFkB-luc2 reporter cell line (human, UniProt Q07011 24-186); test: cell-based or functional assay; design: AUC of activation curve, NFκB-luciferase in Jurkat-hu4-1BB-NFκB-luc2, crosslinking by WM-266-4 cells: unit not given beside the values
[2] = target: T1, human 4-1BB (CD137), …; test: flow cytometry, Jurkat-hu4-1BB-NFkB-luc2 cells, gMFI curve
Experimental: (§1) For binding to cell-surface-expressed human 4-1BB (CD137) Jurkat-hu4-1BB-NFκB-luc2 reporter cell line (Promega, Germany) was used. […] Plates were incubated for 30 minutes at 4° C. and washed once with 200 μL 4° C. cold DPBS buffer. […] Cells were washed twice with 200 μL 4° C. FACS buffer and then resuspended in 50 μL/well DPBS containing 1% Formaldehyde for fixation. The same or the next day cells were resuspended in 100 μL FACS-buffer and acquired using MACSQuant Analyzer 10 (Miltenyi Biotec) or Cantoll (BD).

[3] = target: T2, human Fibroblast Activation Protein (FAP), cell-surface-expressed on NIH/3T3-huFAP clone 19 cells (human, UniProt Q12884 1-760); test: flow cytometry, NIH/3T3-huFAP clone 19 cells, PE anti-human Fc detection
T2 construct: also called FAP-expressing cells
Experimental: (§2) Plates were incubated for 30 minutes at 4° C. and washed once with 200 μL, 4° C. cold DPBS buffer. […] Cells were washed twice with 200 μL 4° C. DPBS buffer and then resuspended in 50 μL/well DPBS containing 1% Formaldehyde for fixation. The same or the next day cells were resuspended in 100 μL FACS-buffer and acquired using MACSQuant Analyzer 10 (Miltenyi Biotec) or Canto II (BD).

[4] = target: T2, human Fibroblast Activation Protein …; test: flow cytometry, NIH/3T3-huFAP clone 19 cells, gMFI curve
Experimental: as §2

[5] = target: T1, human 4-1BB (CD137), …; test: cell-based or functional assay
[6] = target: T1, human 4-1BB (CD137), …; test: flow cytometry, Jurkat-hu4-1BB-NFkB-luc2 cells, PE anti-human Fc detection
Experimental: as §1

[7] = target: T1, human 4-1BB (CD137), …; test: cell-based or functional assay; remark: listed apart in the source
[8] = target: T1, human 4-1BB (CD137), …; test: cell-based or functional assay; design: unit not given beside the values
[9] = target: T1, human 4-1BB (CD137), …; test: flow cytometry, Jurkat-hu4-1BB-NFkB-luc2 cells, PE anti-human Fc detection; remark: listed apart in the source
Experimental: (§3) For binding to cell-surface-expressed human 4-1BB (CD137) Jurkat-hu4-1BB-NFkB-luc2 reporter cell line (Promega, Germany) was used. […] Plates were incubated for 30 minutes at 4° C. and washed once with 200 μL 4° C. cold DPBS buffer. […] Cells were washed twice with 200 μL 4° C. FACS buffer and then resuspended in 50 DPBS containing 1% Formaldehyde for fixation.

[10] = target: T1, human 4-1BB (CD137), …; test: flow cytometry, Jurkat-hu4-1BB-NFkB-luc2 cells, gMFI curve; remark: listed apart in the source
Experimental: as §3

Binder	AUC of activation curve, NFκB-luciferase in Jurkat-hu4-1BB-NFκB-luc2, crosslinking by NIH/3T3-huFAP clone 19 cells [1]	AUC of activation curve, NFκB-luciferase in Jurkat-hu4-1BB-NFκB-luc2, crosslinking by WM-266-4 cells [1]	Area under the curve (AUC) of binding curve [2]	EC50 [3] [nM]	Area under the curve (AUC) of binding curve [4]	EC50 of activation curve, NFκB-luciferase in Jurkat-hu4-1BB-NFκB-luc2, crosslinking by NIH/3T3-huFAP clone 19 cells [5] [nM]	EC50 of activation curve, NFκB-luciferase in Jurkat-hu4-1BB-NFκB-luc2, crosslinking by WM-266-4 cells [5] [nM]	EC50 [6] [nM]	EC50 of activation curve, NFκB-luciferase in Jurkat-hu4-1BB-NFκB-luc2, crosslinking by KPL4 cells [7] [nM]	EC50 of activation curve, NFκB-luciferase in Jurkat-hu4-1BB-NFκB-luc2, crosslinking by NCI-N87 cells [7] [nM]	EC50 of activation curve, NFκB-luciferase in Jurkat-hu4-1BB-NFκB-luc2, crosslinking by SK-Br3 cells [7] [nM]	AUC of activation curve, NFκB-luciferase in Jurkat-hu4-1BB-NFκB-luc2, crosslinking by KPL4 cells [8]	AUC of activation curve, NFκB-luciferase in Jurkat-hu4-1BB-NFκB-luc2, crosslinking by NCI-N87 cells [8]	AUC of activation curve, NFκB-luciferase in Jurkat-hu4-1BB-NFκB-luc2, crosslinking by SK-Br3 cells [8]	EC50 [9] [nM]	Area under the curve (AUC) of binding curve [10]
B1	521	384	75	1.59	30400	–	–	–	–	–	–	–	–	–	–	–
B2	93200	37400	681	2.88	32500	0.02	0.07	2.39	–	–	–	–	–	–	–	–
B3	65500	20400	746	2.01	28800	0.04	0.02	2.09	–	–	–	–	–	–	–	–
B4	–	–	–	–	–	–	–	–	0.19	0.15	0.33	11400	12100	3960	6.95	2100
B5	55200	11700	694	1.19	21000	0.12	0.02	1.72	–	–	–	–	–	–	–	–
